Measured values from article PMC5132288, “Identification, Heterologous Expression, and Functional Characterization of Bacillus subtilis YutF, a HAD Superfamily 5'-Nucleotidase with Broad Substrate Specificity” (PLoS ONE, 2016).

Tests used:
Type in all cases: biochemical, Bacillus subtilis
[1] = substrate: O=[N+]([O-])c1ccc(OP(=O)(O)O)cc1; assay: purified protein; details: 100 mM Tris-HCl pH 8.9, 5 mM MgCl2, 25°C
[2] = substrate: O=c1[nH]c(=O)c2ncn([C@@H]3O[C@H](COP(=O)(O)O)[C@@H](O)[C@H]3O)c2[nH]1; assay: colorimetric inorganic phosphate release, nonlinear regression; details: 100 mM MES pH 6.0, 5 mM MgCl2, 37°C
Description: (§1) colorimetric inorganic phosphate release, nonlinear regression on Ht-YutF (recombinant YutF, N-terminal hexahistidine tag)

[3] = substrate: Nc1nc2c(ncn2[C@@H]2O[C@H](COP(=O)(O)O)[C@@H](O)[C@H]2O)c(=O)[nH]1; assay: as above; details: 100 mM MES pH 6.0, 5 mM MgCl2, 37°C
Description: as §1

[4] = substrate: O=P(O)(O)OC[C@H]1O[C@H](OP(=O)(O)OP(=O)(O)O)[C@H](O)[C@@H]1O; assay: as above; details: 100 mM MES pH 6.0, 5 mM MgCl2, 37°C
Description: as §1

B1: Ht-YutF (recombinant YutF, N-terminal hexahistidine tag) (Bacillus subtilis subsp. subtilis str. 168) (protein)
chain: KTYKGYLIDLDGTMYNGTEKIEEACEFVRTLKDRGVPYLFVTNNSSRTPKQVADKLVSFDIPATEEQVFTTSMATAQHIAQQKKDASVYVIGEEGIRQAIEENGLTFGGENADFVVVGIDRSITYEKFAVGCLAIRNGARFISTNGDIAIPTERGLLPGNGSLTSVLTVSTGVQPVFIGKPESIIMEQAMRVLGTDVSETLMVGDNYATDIMAGINAGMDTLLVHTGVTKREHMTDDMEKPTHAIDSLTEWIPYI
Question: Which Km [1] does the source give for B1 here?
Answer: 1640 ± 60 µM

Question: And the kcat [1]?
Answer: 61 ± 1 s⁻¹

Question: And the kcat/Km [1]?
Answer: 37000 M⁻¹ s⁻¹

Question: And the Km [2]?
Answer: 1530 ± 110 µM

Question: And the kcat [2]?
Answer: 0.31 ± 0.01 s⁻¹

Question: And the kcat/Km [2]?
Answer: 210 M⁻¹ s⁻¹

Question: And the Km [3]?
Answer: 6650 ± 1260 µM

Question: And the kcat [3]?
Answer: 0.06 ± 0.01 s⁻¹

Question: What about the kcat/Km [3] of the same protein?
Answer: 9 M⁻¹ s⁻¹

Question: What about the Km [4] of the same protein?
Answer: 1270 ± 100 µM

Question: What about the kcat [4] of the same protein?
Answer: 0.17 ± 0.01 s⁻¹

Question: And the kcat/Km [4]?
Answer: 130 M⁻¹ s⁻¹
